The DeepSol protein solubility set

Assay: soluble on expression in E. coli; label from the status in PepcDB or PDB records

Row | Sequence | soluble on expression in E. coli
1 | MGSDKIHHHHHHMKDVSIVLSGEAGQGIQTVENVLTRVLKDSGFHVFATKEYMSRVRGGNNTTEIRVSSRRVRSFVDRIDVLIPLGKGATERLKNRITEKTLVIGEEEFIKESPGEKIVIPFLNIAKQIGKSIYANSVAIGFLSGLLGADESALKDQITRQFSSKGEDIVNDNIRAALEGYKKGQELSQKIEFDVEKDPSIKNEVLLNGAEAVGLGAIAGGCNFVSSYPMSPSTSVLVFLAQHKNDFGIVVEQAEDEIAAMNMIIGAWYAGARGLVTTSGGGFALMEEALSLAGMIESPAVIHLAQRPGPATGLPTRTEQGDLNLALYAGHGDFPRVIYAPGNVEEAFYLTQKAFNVADKYQVPVFVLTDQYLVDSYYNLPGFDLNELKVEKHFIKTTRDYIRYAITEDGISPRGIPGYGEGLVRVDSDEHDEFGHITEDFNTRVRMVNKRLRKGETLKKEIVKPKLIGDENYRVLLVAWGSTLEPIKEAIEGLDGVALLHFSQVWPIDESVATYFEKAEKVVAVEGNATGQFANLIRQVTGFHIKDRILKYNGLQFSVEELKEKIAEVL | not soluble
2 | MHGKLIGVGVGPGDSELLTLRAVNVLRSVPVICAPRSSSERESIALSIVEDILTERRDGCRILDPVFPMTDDRDELESHWDSAARMVAAELEDGRDVAFITLGDPSIYSTFSYLQQRIEDMGFKTEMVPGVTSFTACAATAGRTLVEGDEILLVVPRVDDRFERVLRDVDACVIMKTSRHGRRAMEVVESDPRGKDVVSVANCSMDDEVVERGFASGGGYLATTLVRFREQS | soluble
3 | MGSDKIHHHHHHMKEIALLAIARYGDLIQTTPLVRALRRAHPGARITAIVEDRFCGILPLLPGIDRTIVLNKQDIAWDIATGDSPLVPYLKMDEFVRKLEEGSYDLLVNITCSRLSAFFASCVTSRRRTGISADEAGERNIVTLWGQYIFSWFNDNIRKYNAINLVDIFTRLGEVPPDGRRVELVATEKGERFADDFLDRHGLRGQRLVGLQLGASEATRIWPAEHFARISDRLQRELGVRTILFGAPVEKHLAGQAMAAMEMPAVDAVGETGIEELYSLVGRCAALVSNDTGTMHFAAAAGVPAVMLCIGPAFFRCTGPYGEGHLALQPDLPCSPCPYSLVCADPVCRDTISPEAVFSACRMILAGADGLGNADFSGVRVYRSSFAPDGYLTWDGLFNVDAWEEEQVKRRESAWKGCFDGSTKGCGAPGDETLRAFWELTGRGIEATEAIIRAARKKPLPVDEIRRLGEKESAIEAEVKLMGYRHEPLAPVTEFLTLMRENITGEELGRIARETRSLYETGRCLAALL | not soluble
4 | MGSDKIHHHHHHMDQSFQVNLNRLRYFHAILEHGSIRAAAERLNTAPSVVSRQLQLLESEIGAPLFERRQHGMIATEAATLLVEYTHACRIGLEQFHESLHGELRGRVEIALTVGYVEDLMDSVITGFLHRHPHVAVELNVRTADGVVDDVLRKRAHIGLTYNPSLPPEIRECLSVEHPTFLAVAPDHPLAKRGEPLELRDAVRYPLALMPAPYYGVGQIVHTVAHAENIPLAPRLVTNSVPAMRRFVRSGNGVAFLTRLLVEDDLERGEIVALRMRNPLFNSPCGKVLVHNERALPRAANEILARIVRDLPSFKS | not soluble
5 | MIAVQRAVESRSIPPKAIVPVYVATSRMIQNNYSQPYGAERSNKVHYNRVDVGIPQKHVKGVVETNAYKPTHDKYFAAVALQKYDNKEQFKQQLNADLEKKTPGKREIFLFIHGYNNNFADGTFRTAQFTYDYSLNVVTVHYSWPSAGSVPLYIYDRDSANFARDGLIELLTLISETKADQISVIAHSMGNFVIMEAFRTLALQGKYKPIQRITSFLMAAPDIDIDVFERQLNDIKKLPQPTAILVSRADKALAVSGRLTGGHHRVGDGSDIEMLRKNGIAVLDFSNVDGGAHNVFASSPTLMALAREGSLASTIMQGTELSPSQALLADSSSVLEKTTHLILYTPLRLLSPLTRQ | not soluble
6 | MCIGVPGQVLAVGEDIHQLAQVEVCGIKRDVNIALICEGNPADLLGQWVLVHVGFAMSIIDEDEAKATLDALRQMDYDITSA | not soluble
7 | MGSDKIHHHHHHMPSVVGHPQGNIEAIAFVIKFLEGLGFDIRITDIEKTEQPTIIAHYPGRLSDNKIVIYGHYDVAPVKELNSWVSEEAFTLENINGRLYGRGIADNKGPLMARMIALKSLILSDKAIPEILWLIQGEEEITQGDRVAHDIFKDEIPAFGAPVYIEETGFNDLDSNTQIAFLWSPDKSDSELIPWHSLLESSLDSPRIEYRHLNKLNGIKACPLLYNLPKNAVYMGFGPNDRLHFIHRDNESLNENKLLKHQQQFEKFLANYALYNDES | not soluble
8 | MGSDKIHHHHHHMTIYSWNALYLGNAGDIDSYEGDLYAEGASNILGSYGSPGDPLYDHIVDVVVNDADDDTDINSDNYDFWSPDAMTVDGVAHTLDSGVVYNATLTYADGSTANITAVVIQTTDGDLYLAPEMTANDDWVAMEAKAIVSVSLDSVSVDTTYIAANRQQTNFICFAAGTRIATPKGARPVETLAVGDLVQTLDHGPQPIRWIGTRRVGLATQLLSHGVAPVVIPAHSFAPSIPTHPLLLSQQHRVLLRSRIARRMYGSDEILIAARRLTGLHGIALRPATGPVRYIHFALDRHEIVFANGLPAETLLLGAEVERVLGTDVFTQIEQSQNRGAIALAMRPARPIVEGRRARSFVERLRNRACRHALANPIKVPQNRVTGLISLVSPPG | not soluble
9 | EVKLQESGAGLVQPSQSLSLTCSVTGYSITSGYYWNWIRLFPGNKLEWVGYISNVGDNNYNPSLKDRLSITRDTSKNQFFLKLNSVTTEDTATYYCARSEYYSVTGYAMDYWGQGTTVTVSSAWRHP | soluble
10 | MSLDDFCNIPKGKEVVFGFNVPQSGAYADEGMDELKAYQLAVKHLNGEGDGGMLKTMKPLALKGNGVLGKKVTFVSGDTQTKADQARATAKRMIEKDGAIMITGGSSSAEAVAVQSLCQDVGVIFMAGLTHSNDTTGKDKRAYGFRHFFNAYMSGVALGPVLAEAYGKDRAAYHLTADYTWGWTQEESMKDATEKQGWKTVKAVRTPLGAADFSQYITPVLNSGADVLILNHYGKDMINSLTQAVQFGLRDKMANGKKFEIVVPLFSELMAQGAGDAIKGIYGTANWDWKLEDAATSAFTKSFGAAYGTPPSQAAQTCYVQAILYADAVERAGTFNPSKVIAALEGFEFDGLGNGKTLYRAADHQCFKDVLVVQGKEKPKEGHHHHHH | not soluble
11 | MSLDEIAVPILSIITLSSYQPDTIALVDDFSSVSYRNAIIHIETVSEQIASCVANSLTKRVMAYFAGSAEMVLAILGAQLSGAAYIPIEPKTPGSRIDAIADVAKPCMIMTDSQNRQGAQSIAERLGIPLVVLSLKKAGKTLDIFREGYREQPFTVERLTSSTPAVVFFTSGSTGTPKGVELSHLGYYRWFEGVQDLIQVKRGDRVALTTNHSFDLSLGELYLGLMSGATLYVPRQSTVRDPLSLVPWLDQHEITVFQSVPSLMRRILLFRESAGQGLETVRTIMFCGEPLEQQLVKKVKDSFPFSHTRILNLYGPVEASVQVTYCWAEEYLGSEDVIIPLGKPLKHVVVRLAEVDDTSHELQITGDHLALRYLDEKKTRESFINDEAEGTRFYRTGDLGRLNARGDLEYHGRVDDQVKINGYRIELGEIEKTIIDHFKATDCCVLIEKSEGEPSLVAFVVSPNDSVADLRRAVADHLPTYMIPRTVIFIESIPLNTNGKRDKPSLRAEYLKEGHHHHHH | not soluble
12 | MGFQNLWFSHPRKFGPGSRSCRVCAGHHGLIRKYGLDLCRRCFREQARDIGFKKLD | not soluble
13 | MGSDKIHHHHHHAPQPTVAVARGKDYARTTRSALALLGGMKRFVKPGDVVVLKPNMGWDRTPAQAANTHPLVVRALAEEALAAGAKRVKVFDRTCNDERRCYVQSGISDALKGMKGVELKFIENERFRRVPIKGAVLPAWELYDEALSADVFINVPVAKHHGLSRLTLGLKNVMGVMGGNRGSIHRHLDDALADINSVLKSHLTVIDATRILTDHGPQGGSPADVKVMDTVIASTDIVAADAYATTLFGLKPEDIPVTVAAHKRGLGEMNLKRVRIVTA | not soluble
14 | MDNDKNSIIDIVGDGINYEKLKKVEKSLCQIDIITEFMNRSRHLQGKKVNGCIMRIDETKQLLFHVIIDGPVGSIYEGGTFFADINIQPYQNHSLIPRVCFHTFIFHPNLGKYGNWDMRGIQWERRSNLEVLYNFIVEGMRNVKYDIERRNLAQLEDMSQPNISRLAKEDWPKFERTAREFVMKMAGGTINGRKTIFAETKKRRRQDFLDEDIDVIGIS | not soluble
